Data reported in article PMC5818494, “Specific Recognition of Arginine Methylated Histone Tails by JMJD5 and JMJD7” (Scientific Reports, 2018).
Read-outs that look alike come from different tables or passages of the source.

Experiments:
calf bulk histone [1] = test: SPR; Biacore; 10 μg/ml calf bulk histone in 50 mM sodium acetate pH 5.0 coated onto a CM5 chip; enzyme injected at different concentrations; room temperature; non-linear binding kinetics, ranges estimated
calf bulk histone [2] = test: as above; remark: listed apart in the source
[3] = target: histone H3 peptide pH3K4(me2) N-terminal tail peptide (Homo sapiens) (UniProt P68431); details: cited from earlier work
[4] = target: histone H3 peptide (pH3) N-terminal tail peptide (Homo sapiens) (UniProt P68431); test: fluorescence polarization; details: cited from earlier work
[5] = target: histone H3 peptide pH3R2me2a N-terminal tail peptide (Homo sapiens) (UniProt P68431); test: fluorescence polarization; details: cited from earlier work

Sequence of c-JMJD5 catalytic core (Q8N371 183-416): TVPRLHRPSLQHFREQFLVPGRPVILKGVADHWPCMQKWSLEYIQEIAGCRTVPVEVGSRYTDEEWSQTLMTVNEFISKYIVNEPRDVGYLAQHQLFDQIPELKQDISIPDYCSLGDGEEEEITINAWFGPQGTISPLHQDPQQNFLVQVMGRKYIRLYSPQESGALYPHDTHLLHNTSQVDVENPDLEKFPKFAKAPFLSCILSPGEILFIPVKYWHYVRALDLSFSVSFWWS
Sequence of c-JMJD5 (JMJD5 residues 183–416, lacking the N-terminal domain) (Q8N371 183-416): as above
Sequence of JMJD7 (mouse), JMJD7 protein alone generated from GST-JMJD7 fusion protein (P0C872 whole entry, the tested form may be a part): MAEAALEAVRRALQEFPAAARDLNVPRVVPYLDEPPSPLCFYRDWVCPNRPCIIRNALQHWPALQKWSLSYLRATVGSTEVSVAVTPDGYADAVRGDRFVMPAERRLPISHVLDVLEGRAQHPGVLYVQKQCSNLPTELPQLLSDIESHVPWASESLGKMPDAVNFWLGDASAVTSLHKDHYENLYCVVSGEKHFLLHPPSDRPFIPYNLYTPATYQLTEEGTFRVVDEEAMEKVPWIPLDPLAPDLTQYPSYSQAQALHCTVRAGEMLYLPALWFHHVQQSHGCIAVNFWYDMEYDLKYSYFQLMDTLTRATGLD

| Substance | Kd (calf bulk histone [1]) [µM] | Kd (calf bulk histone [2]) [µM] | Kd [3] [µM] | Kd [4] [µM] | Kd [5] [µM] |
| --- | --- | --- | --- | --- | --- |
| JMJD7 (mouse), JMJD7 protein alone generated from GST-JMJD7 fusion protein (from UniProt P0C872 1-316) (enzyme) | 1 to 50 | 1 to 10 | – | – | – |
| c-JMJD5 catalytic core (from UniProt Q8N371) | – | – | 4 | 7 | 0.112 |
| c-JMJD5 (JMJD5 residues 183–416, lacking the N-terminal domain) (from UniProt Q8N371 183-416) (domain or fragment) | 1 to 50 | 1 to 10 | – | – | – |
